Data as given in patent US20040259802.

Biological target: T1, 19-mer (SEQ ID NO:11) cleavage domain peptide
T1 chain: PRCGNPDVANYNFFPRKPK

B1: Proenzyme pro-MMP-9 (protein)
chain: APRQRQSTLVLFPGDLRTNLTDRQLAEEYLYRYGYTRVAEMRGESKSLGPALLLLQKQLSLPETGELDSATLKAMRTPRCGVPDLGRFQTFEGDLKWHHHNITYWIQNYSEDLPRAVIDDAFARAFALWSAVTPLTFTRVYSRDADIVIQFGVAEHGDGYPFDGKDGLLAHAFPPGPGIQGDAHFDDDELWSLGKGVVVPTRFGNADGAACHFPFIFEGRSYSACTTDGRSDGLPWCSTTANYDTDDRFGFCPSERLYTQDGNADGKPCQFPFIFQGQSYSACTTDGRSDGYRWCATTANYDRDKLFGFCPTRADSTVMGGNSAGELCVFPFTFLGKEYSTCTSEGRGDGRLWCATTSNFDSDKKWGFCPDQGYSLFLVAAHEFGHALGLDHSSVPEALMYPMYRFTEGPPLHKDDVNGIRHLYGPRPEPEPRPPTTTTPQPTAPPTVCPTGPPTVHPSERPTAGPTGPPSAGPTGPPTAGPSTATTVPLSPVDDACNVNIFDAIAEIGNQLYLFKDGKYWRFSEGRGSRPQGPFLIADKWPALPRKLDSVFEERLSKKLFFFSGRQVWVYTGASVLGPRRLDKLGLGADVAQVTGALRSGRGKMLLFSGRRLWRFDVKAQMVDPRSASEVDRMFPGVPLDTHDVFQYREKAYFCQDRFYWRVSSRSELNQVDQVGYVTYDILQCPED
conversion of pro-MMP-9 into prodomain and active enzyme by stromilysin (HPLC splicing assay): Titrating the standard splicing reaction with the 19-mer (SEQ ID NO:11) peptide prevents the conversion of pro-MMP-9 into the prodomain and the active enzyme. Splicing can be inhibited in a dose dependent manner with micromolar 19-mer
